Assay results from patent US20230322924A1 (Janssen / Centocor, published 2023).
Read-outs that look alike come from different tables or passages of the source.

Key:
[1] = molecular target: T1, cynomolgus monkey PSMA on HEK cells (cynomolgus); test: flow cytometry, mammalian Fab supernatant on cyno-PSMA HEK cells (PSMG5), anti-human kappa-RPE
T1 construct: whole, on cells; also called Cyno-PSMA HEK; PSMG5
From the text: (§1) (Mammalian Fab Supernatant Titration Curves for Anti-PSMA Phage Panning Hits vs Cyno PSMA HEK). […] In FIG. 24D, Mammalian-expressed supernatants were normalized for Fab expression via octet, and titrated against either human LNCAP, PSMG5 (Cyno-PSMA HEK), or PSMG9 (chimp-PSMA HEK) cells using flow cytometry. Geometric mean fluorescence intensity (GeoMFI) was plotted vs. Fab concertation using GraphPad Prizm.
(§2) A cell-based binding assay was designed to assess the binding capabilities of individual Fab-his fusions from E. coli supernatants to PSMA-expressing cells. Individual Fab clones were isolated from the round 3 output of all panning experiments following pIX excision. Fab clones were tested for binding to chimp and cyno PSMA expressing HEK cells, as well as to human PSMA on LNCaP cells. Briefly, PSMA expressing cells were aliquoted into a V-bottom plate (CoStar 3357) at a density of 200,000 per well and incubated with (100 μl) supernatants expressing Fab fragments for 1 hour on ice. […] Plates were read on a BD FACS Array flow cytometer. FACS data was analyzed in FlowJo software by live gating the healthy population of cells using forward scatter and side scatter, and then analyzing the cells within this gate for PE staining. Mean fluorescence intensity (MFI) was calculated and exported into Microsoft Excel. […]

[2] = molecular target: T2, human PSMA on cells (LNCaP) (human, UniProt Q04609 1-750); test: flow cytometry, mammalian Fab supernatant on LNCaP cells, anti-human kappa-RPE
T2 construct: whole, on cells; also called LNCaP cells
Experimental: (§3) Individual Fab clones were isolated from the round 3 output of all panning experiments following pIX excision. Fab clones were tested for binding to chimp and cyno PSMA expressing HEK cells, as well as to human PSMA on LNCaP cells. Briefly, PSMA expressing cells were aliquoted into a V-bottom plate (CoStar 3357) at a density of 200,000 per well and incubated with (100 μl) supernatants expressing Fab fragments for 1 hour on ice. Cells were washed twice with PBS containing 2% FBS, and stained with a mouse anti-human kappa-RPE antibody (Life Technologies cat #MH10514) for 1 hour on ice. Cells were washed twice with PBS containing 2% FBS and resuspended in […] of the same wash buffer. Plates were read on a BD FACS Array flow cytometer. FACS data was analyzed in FlowJo software by live gating the healthy population of cells using forward scatter and side scatter, and then analyzing the cells within this gate for PE staining. Mean fluorescence intensity (MFI) was calculated and exported into Microsoft Excel. […] Fabs were sequenced and moved forward for cloning into mammalian expression vector for rescreening. True positives were selected from the binding of mammalian cell expressed Fab supernatants to PSMA-expressing cell lines.
FIGS. 22A, 22B, 22C and 22D show the titration curves for anti-PSMA panning hits vs. LNCaP cells. […] Binding profiles among hits were compared across cell lines expressing different species of PSMA.

[3] = molecular target: T1, cynomolgus monkey PSMA on HEK cells; test: flow cytometry, mammalian Fab supernatant on cyno-PSMA HEK cells (PSMG5), anti-human kappa-RPE; remark: listed apart in the source
From the text: as §1, §2

[4] = molecular target: T3, chimpanzee PSMA on HEK cells (chimpanzee, UniProt H2Q3K5 1-750); test: flow cytometry, mammalian Fab supernatant on chimp-PSMA HEK cells (PSMG9), anti-human kappa-RPE
T3 construct: also called chimp-PSMA HEK; PSMG9
Experimental: as §3
(§4) FIGS. 22A, 22B, 22C and 22D show the titration curves for anti-PSMA panning hits vs. LNCaP cells. […]

[5] = molecular target: T3, chimpanzee PSMA on HEK cells; test: as above; remark: listed apart in the source
Experimental: as §3, §4

Rh-integrin a4b7 = molecular target: T4, Rh-integrin a4b7 (UniProt P13612 34-977; P26010 20-723, limits assumed); test: Biacore 8K SPR, antibody over immobilised protein
T4 construct: rh read as recombinant human
Experimental: (§5) Non-specific binding of the lead molecule to unrelated surfaces is determined by biosensor technology (Biacore 8K). Antibody is passed over SPR surfaces coated with unrelated proteins. […] Irrelevant surfaces include negatively charged protein (Soy Trypsin Inhibitor), positively charged protein (Lysozyme and β-defensin), hydrophobic (Rh-integrin a4b7), human IgG, sticky protein (Rh-CD19). Proper controls are used in this experiment. Lead is flown over two surfaces, one is a blank and the other has a molecule directly immobilized. The response unit (RU) level is determined by subtracting the blank RU from the test surface RU. […] A response unit ≥100 predicts high risks for non-specific binding to charged/hydrophobic/IgG surfaces which would create challenges during manufacturing and translate to poor PK properties.

Rh-CD19 = molecular target: T5, Rh-CD19 (UniProt P15391 20-291, limits assumed); test: Biacore 8K SPR, antibody over immobilised protein
T5 construct: rh read as recombinant human
T5 sequence (looked up): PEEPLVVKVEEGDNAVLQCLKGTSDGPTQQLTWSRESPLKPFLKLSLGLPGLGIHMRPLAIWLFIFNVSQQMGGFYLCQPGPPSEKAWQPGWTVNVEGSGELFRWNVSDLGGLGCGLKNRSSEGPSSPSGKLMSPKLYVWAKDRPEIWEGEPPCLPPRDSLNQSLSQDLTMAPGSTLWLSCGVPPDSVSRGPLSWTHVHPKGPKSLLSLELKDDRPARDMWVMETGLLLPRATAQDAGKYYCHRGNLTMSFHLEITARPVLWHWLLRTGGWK
Experimental: as §5

[6] = molecular target: T6, human CD3 on human T cells (human, UniProt P07766 23-207); test: competition with AF488 SP-34 tracer on human pan T cells, flow cytometry
T6 construct: Native TCR-CD3 complex on cells; also called primary human T cells; human pan T cells
Experimental: (§6) The mixture was added to the T cells for 2 hours at 4° C. Cells were then washed to remove un-bound antibody, fixed for 15 minutes, washed, and re-suspended in FACS Staining buffer containing 1 mM EDTA.
(§7) The iQue Intellicyte Flow Cytometer was used to measure binding. Cells were gated for T-cell population, followed by cell singlets, followed by Live Cells (FL4). Geometric mean of staining (FL1) was determined for each well. The acquired mean fluorescence intensity values were plotted as a function of the log antibody molecule concentration (converted to nM) and analyzed using Prism software in a sigmoidal dose-response (variable slope) from which the EC50/IC50 values (in nM) are derived. The binding affinity (Kd) was derived using the following formula: Kd=IC50/(1+([T]/KdT)).

[7] = molecular target: T6, human CD3 on human T cells; test: Kd = IC50/(1+[T]/KdT) from competition with AF488 SP-34 on human pan T cells
Experimental: as §6, §7

Human CD33 full length [8] = molecular target: T7, Human CD33 full length (human, UniProt P20138 18-364); test: cell-based or functional assay
Human CD33 full length [9] = molecular target: T7, Human CD33 full length; test: cell-based or functional assay; remark: listed apart in the source
Cyno CD33 full length = Cyno CD33 full length (cynomolgus monkey); test: cell-based or functional assay
Cyno CD3e = Cyno CD3e (cynomolgus monkey, UniProt Q95LI5 22-198); test: cell-based or functional assay
Cyno CD3e, sequence (Q95LI5 22-198): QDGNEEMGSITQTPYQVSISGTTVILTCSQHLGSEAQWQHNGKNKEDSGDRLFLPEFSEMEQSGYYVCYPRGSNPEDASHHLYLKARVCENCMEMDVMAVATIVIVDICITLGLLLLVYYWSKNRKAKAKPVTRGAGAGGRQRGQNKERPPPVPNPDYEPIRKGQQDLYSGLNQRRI

T3 sequence (H2Q3K5 entry or part of it limits assumed): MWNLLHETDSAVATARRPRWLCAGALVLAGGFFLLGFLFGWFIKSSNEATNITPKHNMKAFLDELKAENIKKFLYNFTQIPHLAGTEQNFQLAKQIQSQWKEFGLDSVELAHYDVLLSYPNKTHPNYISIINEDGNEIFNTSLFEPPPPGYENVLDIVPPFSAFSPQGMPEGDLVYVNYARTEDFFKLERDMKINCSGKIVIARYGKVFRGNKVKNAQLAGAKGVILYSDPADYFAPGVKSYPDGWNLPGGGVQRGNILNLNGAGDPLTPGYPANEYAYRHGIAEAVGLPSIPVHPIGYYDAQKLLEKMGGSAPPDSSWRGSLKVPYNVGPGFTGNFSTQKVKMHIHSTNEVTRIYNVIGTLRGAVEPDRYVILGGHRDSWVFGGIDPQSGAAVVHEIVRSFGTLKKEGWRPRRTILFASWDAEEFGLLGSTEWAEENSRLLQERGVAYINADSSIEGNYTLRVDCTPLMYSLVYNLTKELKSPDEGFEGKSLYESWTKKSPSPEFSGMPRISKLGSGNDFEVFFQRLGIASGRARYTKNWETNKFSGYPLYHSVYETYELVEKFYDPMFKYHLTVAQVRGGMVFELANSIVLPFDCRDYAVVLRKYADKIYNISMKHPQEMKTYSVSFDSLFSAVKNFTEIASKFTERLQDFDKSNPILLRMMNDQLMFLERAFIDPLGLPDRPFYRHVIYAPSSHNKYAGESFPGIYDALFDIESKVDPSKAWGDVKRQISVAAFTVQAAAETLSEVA
T6 sequence (P07766 23-207 limits assumed): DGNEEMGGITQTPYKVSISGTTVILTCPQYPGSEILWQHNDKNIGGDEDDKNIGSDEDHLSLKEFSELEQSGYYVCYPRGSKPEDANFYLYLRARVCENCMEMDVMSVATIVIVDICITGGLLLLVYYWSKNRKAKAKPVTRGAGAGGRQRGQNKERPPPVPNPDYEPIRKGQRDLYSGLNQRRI
T7 sequence (P20138 18-364 limits assumed): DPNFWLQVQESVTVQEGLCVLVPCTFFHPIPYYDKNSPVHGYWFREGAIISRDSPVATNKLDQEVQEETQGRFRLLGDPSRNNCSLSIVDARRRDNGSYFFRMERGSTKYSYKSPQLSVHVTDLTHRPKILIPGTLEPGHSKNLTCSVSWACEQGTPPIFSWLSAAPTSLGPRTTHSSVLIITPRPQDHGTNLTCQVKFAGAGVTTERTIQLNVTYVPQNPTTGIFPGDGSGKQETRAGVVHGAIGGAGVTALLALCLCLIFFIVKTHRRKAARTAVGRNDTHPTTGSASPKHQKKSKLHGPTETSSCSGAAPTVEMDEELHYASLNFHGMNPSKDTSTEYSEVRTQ
T2 sequence (Q04609 whole entry): as the sequence (H2Q3K5 entry or part of it limits assumed) above, with L155S, H281R, Y475H, N613S, T647S, L660V, D727E, S733Y counted along it

B1: PSMM85 (Fab, V domains shown)
VH: EVQLLESGGGLVQPGGSLRLSCAASGFTFDSDWMSWVRQAPGKGLEWVSAISGNGGSTEYADSVKGRFTISRDNSKNTLYLQMNSLRAEDTAVYYCARDPYYYYDGDSYYGMDVWGQGTLVTVSS
VL: not shown
notes: Mammalian Fab supernatant; also called PSMB84
EC50 (read off the curve) [1]: ~0.4 µg/mL

B2: PSMM52 (Fab, V domains shown)
VH: QVQLVQSGAEVKKPGSSVKVSCKASGGTFSSYAISWVRQAPGQGLEWMGWIIPYNGNANYAQKFQGRVTITADESTSTAYMELSSLRSEDTAVYYCARVNSAALVWERLDYWGQGTLVTVSS
VL: DIQMTQSPSSLSASVGDRVTITCRASQSIDRWLNWYQQKPGKAPKLLIYAASSLQSGVPSRFSGSGSGTDFTLTISSLQPEDFATYYCQQSPRYPLTFGQGTKVEIK
notes: Mammalian Fab supernatant; also called PSMB51
EC50 (read off the curve) [2]: ~0.3 µg/mL
EC50 (read off the curve) [3]: ~0.2 µg/mL
EC50 (read off the curve) [1]: ~0.2 µg/mL
EC50 (read off the curve) [4]: ~0.2 µg/mL
EC50 (read off the curve) [5]: ~0.2 µg/mL

B3: PSMM87 (Fab, V domains shown)
VH: QVQLVQSGAEVKKPGSSVKVSCKASGGTFKSYDISWVRQAPGQGLEWMGGIIPIEGTANYAQKFQGRVTITADESTSTAYMELSSLRSEDTAVYYCARDYPAGYGFDYWGQGTLVTVSS
VL: not shown
notes: Mammalian Fab supernatant; also called PSMB86
EC50 (read off the curve) [2]: ~0.2 µg/mL
EC50 (read off the curve) [5]: ~0.4 µg/mL

B4: CD3B376 (antibody, human IgG4 S228P, lambda, F234A L235A, V domains shown)
VH: QVQLQQSGPRLVRPSQTLSLTCAISGDSVFNNNAAWSWIRQSPSRGLEWLGRTYYRSKWLYDYAVSVKSRITVNPDTSRNQFTLQLNSVTPEDTALYYCARGYSSSFDYWGQGTLVTVSS
VL: QSALTQPASVSGSPGQSITISCTGTSSNIGTYKFVSWYQQHPDKAPKVLLYEVSKRPSGVSSRFSGSKSGNTASLTISGLQAEDQADYHCVSYAGSGTLLFGGGTKLTVLG
notes: IgG4 PAA (S228P, F234A, L235A); LC is CD3L124 with C91V; also called CD3H219/CD3L150; bivalent CD3B376
binding result (Rh-integrin a4b7): no binding (tested: response unit ≥100 predicts high risks)
binding result (Rh-CD19): no binding (tested: response unit ≥100 predicts high risks)
IC50 [6]: 29 nM
Kd [7]: 7.3 nM

B5: CD3B450 (antibody, human IgG4 S228P, lambda, F234A L235A, V domains shown)
VH: QVQLQQSGPGLVKPSQTLSLTCAISGDSVFNNNAAWSWIRQSPSRGLEWLGRTYYRSKWLYDYAVSVKSRITINPDTSKNQFSLQLNSVTPEDTAVYYCARGYSSSFDYWGQGTLVTVSS
VL: QSALTQPASVSGSPGQSITISCTGTSSNIGTYKFVSWYQQHPGKAPKVMIYEVSKRPSGVSNRFSGSKSGNTASLTISGLQAEDEADYYCVSYAGSGTLLFGGGTKLTVLG
notes: IgG4 PAA; also called CD3H231/CD3L197; bivalent CD3B450
IC50 [6]: 60 nM
Kd [7]: 15 nM

B6: C3CB88 (bispecific antibody, IgG4, V domains shown)
VH 1: EVQLVESGGGLVQPGRSLRLSCAASGFTFDDYAMHWVRQAPGKGLEWVSGIGWSGGSIVYADSVKGRFTISRDNAKNSLYLQMNSLRAEDTALYYCAKDSPYGDFFDYWGQGTLVTVSS
VL 1: DIVMTQSPDSLAVSLGERATINCKSSQTVFYSSNNKNYLAWYQQKPGQPPKLLISWASTRKSGVPDRFSGSGSGTDFTLTVSSLQAEDVAVYYCQHYYSTPYTFGQGTKLEIK
VH 2: EVQLVESGGGLVQPGGSLRLSCAASGFTFNTYAMNWVRQAPGKGLEWVARIRSKYNNYATYYAASVKGRFTISRDDSKNSLYLQMNSLKTEDTAVYYCARHGNFGNSYVSWFAYWGQGTLVTVSS
VL 2: QTVVTQEPSLTVSPGGTVTLTCRSSTGAVTTSNYANWVQQKPGQAPRGLIGGTNKRAPGTPARFSGSLLGGKAALTLSGVQPEDEAEYYCALWYSNLWVFGGGTKLTVL
Primary AML Cell Killing EC50 (Human CD33 full length [8]): 0.672 nM
CD33^+ CD14^+ Killing EC50 (Human CD33 full length [9]): 0.506 nM
MOLM13 Killing EC50 (Human CD33 full length [9]): 0.671 nM
CD33^+ CD14^+ Killing EC50 (Cyno CD33 full length): 0.89 nM
T cell activation EC50 (Cyno CD3e): 0.02 nM

B7: C3CB189 (bispecific antibody, IgG4, V domains shown)
VH 1: EVQLVESGGGLVQPGRSLRLSCAASGFTFDDYAMHWVRQAPGKGLEWVSGIGWSGGSIVYADSVKGRFTISRDNAKNSLYLQMNSLRAEDTALYYCAKDSPYGDFFDYWGQGTLVTVSS
VL 1: DIVMTQSPDSLAVSLGERATINCKSSQTVFYSSNNKNYLAWYQQKPGQPPKLLISWASTRKSGVPDRFSGSGSGTDFTLTVSSLQAEDVAVYYCQHYYSTPYTFGQGTKLEIK
VH 2: QVQLQQSGPRLVRPSQTLSLTCAISGDSVFNNNAAWSWIRQSPSRGLEWLGRTYYRSKWLYDYAVSVKSRITVNPDTSRNQFTLQLNSVTPEDTALYYCARGYSSSFDYWGQGTLVTVSS
VL 2: QSALTQPASVSGSPGQSITISCTGTSSNIGTYKFVSWYQQHPDKAPKVLLYEVSKRPSGVSSRFSGSKSGNTASLTISGLQAEDQADYHCVSYAGSGTLLFGGGTKLTVL
Primary AML Cell Killing EC50 (Human CD33 full length [8]): 0.578 nM
CD33^+ CD14^+ Killing EC50 (Human CD33 full length [9]): 1.16 nM
MOLM13 Killing EC50 (Human CD33 full length [9]): 0.168 nM
CD33^+ CD14^+ Killing EC50 (Cyno CD33 full length): 3.6 nM
T cell activation EC50 (Cyno CD3e): 0.02 nM

B8: PSMM18 (Fab, V domains shown)
VH: EVQLVQSGAEVKKPGESLKISCKGSGYSFTSYWIGWVRQMPGKGLEWMGIIYPGDSDTRYSPSFQGQVTISADKSISTAYLQWSSLKASDTAMYYCARAYHYSKGLDYWGQGTLVTVSS
VL: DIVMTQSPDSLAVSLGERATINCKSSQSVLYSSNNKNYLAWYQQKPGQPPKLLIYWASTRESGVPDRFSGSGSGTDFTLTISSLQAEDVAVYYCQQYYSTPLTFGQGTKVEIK
notes: Mammalian Fab supernatant; also called PSMB18
binding result [2]: binds
EC50 (read off the curve) [4]: ~0.3 µg/mL

B9: PSMM59 (Fab, V domains shown)
VH: EVQLVQSGAEVKKPGESLKISCKGSGYSFTSYWISWVRQMPGKGLEWMGIIYPGDSYTRYSPSFQGQVTISADKSISTAYLQWSSLKASDTAMYYCARDYEWELFDSRLDYWGQGTLVTVSS
VL: not shown
notes: Mammalian Fab supernatant; also called PSMB58
EC50 (read off the curve) [3]: ~0.2 µg/mL
